# Measurements from publication PMC9889658, “The structure of MadC from Clostridium maddingley reveals new insights into class I lanthipeptide cyclases” (Frontiers in Microbiology, 2023).
# pKd: −log10 of the molar value.
# Columns and labels:
# [1] = molecular target: maddinglicin leader peptide construct madL1, Leader 1 (−23 – −1) (Clostridium sp. maddingley); assay: ITC; MadC (200–600 μM) in the syringe, 20 injections of 2 μl into the cell with the leader variant (20–60 μM); 25°C; 50 mM HEPES, 500 mM NaCl, pH 7.5; at least triplicate
# [2] = molecular target: maddinglicin leader peptide construct madL3, Leader 3 (−23 − +10) (Clostridium sp. maddingley); assay: as above
# [3] = molecular target: maddinglicin leader peptide construct madL2, Leader 2 (−23 − +5) (Clostridium sp. maddingley); assay: as above
# [4] = molecular target: prenisin (unmodified) (Lactococcus lactis) (UniProt P13068); conditions: cited from earlier work
# [5] = molecular target: prenisin (dehydrated) (Lactococcus lactis) (UniProt P13068); conditions: cited from earlier work
# [6] = molecular target: prenisin (modified) (Lactococcus lactis) (UniProt P13068); conditions: cited from earlier work
# [7] = molecular target: NisA leader peptide leader peptide (Lactococcus lactis) (UniProt P13068); assay: ITC; conditions: cited from earlier work
# [8] = molecular target: NisA precursor peptide (unmodified) (Lactococcus lactis) (UniProt P13068); assay: ITC; conditions: cited from earlier work
# [9] = molecular target: nisin precursor NisA (unmodified) (Lactococcus lactis) (UniProt P13068); assay: ITC; conditions: cited from earlier work
# [10] = molecular target: MadC ∆34 ∆391 (double mutant carrying both deletions, each with an inserted GAG-linker) (Clostridium sp. maddingley); assay: SPR
# Sequence of NisB (P20103 whole entry): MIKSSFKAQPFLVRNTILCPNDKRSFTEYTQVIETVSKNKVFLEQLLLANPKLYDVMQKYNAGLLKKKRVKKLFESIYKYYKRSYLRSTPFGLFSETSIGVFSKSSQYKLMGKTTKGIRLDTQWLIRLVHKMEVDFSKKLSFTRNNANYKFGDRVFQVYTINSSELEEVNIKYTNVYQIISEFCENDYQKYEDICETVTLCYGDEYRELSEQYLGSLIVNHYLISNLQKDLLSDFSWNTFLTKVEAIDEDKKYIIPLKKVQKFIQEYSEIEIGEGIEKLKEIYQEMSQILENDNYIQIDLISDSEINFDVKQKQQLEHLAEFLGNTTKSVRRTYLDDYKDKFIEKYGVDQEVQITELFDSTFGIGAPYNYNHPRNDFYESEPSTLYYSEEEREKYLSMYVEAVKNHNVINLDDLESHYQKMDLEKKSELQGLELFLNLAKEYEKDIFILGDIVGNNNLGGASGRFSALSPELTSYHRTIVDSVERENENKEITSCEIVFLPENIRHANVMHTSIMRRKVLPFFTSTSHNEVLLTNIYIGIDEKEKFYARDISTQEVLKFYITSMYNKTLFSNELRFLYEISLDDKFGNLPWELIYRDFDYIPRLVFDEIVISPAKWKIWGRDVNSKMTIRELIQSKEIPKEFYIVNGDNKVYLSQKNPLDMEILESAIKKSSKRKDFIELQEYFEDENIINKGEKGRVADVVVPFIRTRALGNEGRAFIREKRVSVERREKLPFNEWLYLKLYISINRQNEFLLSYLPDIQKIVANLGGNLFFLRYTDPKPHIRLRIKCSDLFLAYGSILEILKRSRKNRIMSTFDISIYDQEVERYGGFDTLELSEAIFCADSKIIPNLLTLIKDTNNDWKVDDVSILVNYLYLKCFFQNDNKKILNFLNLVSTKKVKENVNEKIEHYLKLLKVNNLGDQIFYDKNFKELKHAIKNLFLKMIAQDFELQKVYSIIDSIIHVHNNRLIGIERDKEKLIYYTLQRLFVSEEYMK
# Sequence of NisC (Q03202 whole entry): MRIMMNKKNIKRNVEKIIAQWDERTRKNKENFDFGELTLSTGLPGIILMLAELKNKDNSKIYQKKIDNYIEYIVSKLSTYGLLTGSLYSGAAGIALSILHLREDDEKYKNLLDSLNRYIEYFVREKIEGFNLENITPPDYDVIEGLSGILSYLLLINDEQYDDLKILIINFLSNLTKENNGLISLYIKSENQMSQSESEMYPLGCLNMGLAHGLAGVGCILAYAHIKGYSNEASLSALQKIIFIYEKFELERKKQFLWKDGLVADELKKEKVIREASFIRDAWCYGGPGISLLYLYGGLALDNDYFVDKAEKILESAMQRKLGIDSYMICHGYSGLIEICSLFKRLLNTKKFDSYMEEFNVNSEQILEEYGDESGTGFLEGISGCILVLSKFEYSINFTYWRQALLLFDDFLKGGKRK
# Sequence of prenisin (dehydrated) (Lactococcus lactis) (P13068 24-57): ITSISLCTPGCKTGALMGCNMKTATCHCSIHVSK
# Sequence of NisA precursor peptide (unmodified) (Lactococcus lactis) (P13068 24-57): as above
# Sequence of prenisin (unmodified) (Lactococcus lactis) (P13068 24-57): as above
# Sequence of prenisin (modified) (Lactococcus lactis) (P13068 24-57): as above
# Sequence of nisin precursor NisA (unmodified) (Lactococcus lactis) (P13068 24-57): as above
# Sequence of NisA leader peptide leader peptide (Lactococcus lactis) (P13068 1-23): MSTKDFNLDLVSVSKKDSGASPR
substance,measurement,setting,value
"MadC (lanthionine cyclase of Clostridium sp. maddingley), His6-tag cleaved off (enzyme)",dH,[1],-36.7 kJ/mol
same,stoichiometry N,[1],0.83
same,dH,[2],-30.6 kJ/mol
same,stoichiometry N,[2],0.99
same,dH,[3],-25.2 kJ/mol
same,stoichiometry N,[3],0.99
NisB (from UniProt P20103),pKd,[4],6.00
same,pKd,[5],6.52
same,pKd,[6],4.98
NisC (from UniProt Q03202),pKd,[7],5.42
same,pKd,[8],5.62
same,pKd,[9],5.70
"maddinglicin leader peptide construct madL3, Leader 3 (−23 − +10)",pKd,[10],4.46
